Assay: yeast display, Sf9 membrane polyspecificity reagent, FACS + sequencing; frameworks hold sequencing errors
How it was run: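 A synthetic nanobody library was expressed on Saccharomyces cerevisiae BJ5465 by galactose induction for 36–48 hours. The library was stained for 1 hour at 4 °C with 10% biotinylated, detergent-solubilized Sf9 membrane reagent and enriched with streptavidin microbeads before FACS. Low and high (top ~1%) gates were set on anti-HA fluorescence for expression and streptavidin fluorescence for reagent binding, and each polyreactivity label reflects the gate of origin.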

Sequence | polyreactivity (PSR sort gate)
QVQLVESGGGLVQAGGSLRLSCAASGFTFYTYVMGWYRQAPGKERELVAAITSGVSTNYADSVKGRFTISRDNAKNTVYLQMNSLKPEDTAVYYCAAGSDFQYGHDYWGQGTQVTVSS | low polyreactivity
QVQLVESGGGLVQAGGSLRLSCAASGFTFYVNAMGWYRQAPGKEREFVAAISASGASTRYADSVKGRFTISRDNAKNTVYLQMNSLKPEDTAVYYCAADAPAWILEAYGYWGQGTQVTVSS | low polyreactivity
QVQLVESGGGLVQAGGSLRLSCAASGFTFYVYAIGWYRKAPRKEREFVAAISKSGGRTYYADSVKGRFTISRDTAKNTVYLQMNSLKPEDTAVYYCGRYNRYQIIYPRFDYWGHGTQVTVSS | high polyreactivity
QVQLVESGGGLVQAGGSLRLSCAASGFTFYVYAMGWYRQARGQERELVATISRGGSTNYADSVKGRFTISRDNAKNTVYLQMNSLKPEDTAVYYCAARKYHYFPSRYGYWGQGTQVTVSS | high polyreactivity
QVQLVESGGGLVQAGGSLRLSCAASGFTFYWNAMGWSRQAPGKERELVAAINGGDSTNYADSVKGRFTISRDNAKNTVYLQMNSLKPEDTAVYYCAAEPSLEAWTAFGSYYWGQGTQVTVSS | low polyreactivity
QVQLVESGGGLVQAGGSLRLSCAASGFTFYWYAMGWYRQAPGKERQLVAAISKTGGSTYYADSVKGRFTISRDNAQKTVYLQMTSLKPEDTAVYYCNADKVATWRTHHDYWGQGTQVTVSS | low polyreactivity
QVQLVESGGGLVQAGGSLRLSCAASGFTFYYNAMGWYRQAPGKERELVAIRFRGGNTYYADSVKGRFTISRDNAKNTVYLQMNSLKPEDTAVYYCNADDRGSTYVDFDYWGQGTQVTVSS | low polyreactivity
QVQLVESGGGLVQAGGSLRLSCAASGFTFYYNAMGWYRQAPGKERELVAIRFRGGNTYYADSVKGRFTISRDNAKNTVYLQMNSLKPEDTAVYYCNADDRGSTYVEFDYWGQGTQVTVSS | low polyreactivity
QVQLVESGGGLVQAGGSLRLSCAASGFTFYYYAMGWSRQAPGKERELVAAISTRDGNTYYADSVKGRFTISRDNAKNTVYLQRNSLKPEDTAVYYCAADYFRYYPYDYWGQGTQVTVSS | low polyreactivity
QVQLVESGGGLVQAGGSLRLSCAASGFTFYYYAMGWYRQAPGKERELVAAIDTGGSTNYADSVKGRFTISRDNAKNTVYLQMNSLKPEDTAVYYCNADTPDHYGHYDYWGQGTQVTVSS | low polyreactivity
QVQLVESGGGLVQAGGSLRLSCAASGFTFYYYAMGWYRQAPGKERELVAAISSSGVRTYYADSVKGRFTISRDNAKNTVYLQMKSLKPEDTAVYYCATVGRGFPSVELDYWGQGTQVTVSS | high polyreactivity
QVQLVESGGGLVQAGGSLRLSCAASGFTFYYYAMGWYRQAPRKERQLVAAFSWSGGSTYYADSVKGRFTISRDYAKNTVYLQMNRLKPVDTAVYYCNAYPGYRSRSDYGYWGQGTQVTVSS | high polyreactivity
QVQLVESGGGLVQAGGSLRLSCAASGFTFYYYTMGWYRQAPGKEMELVADISSGDRTYYADSVKGRFTISRDNAKNTVYLQMNSLKPEDTAVYYCAAPAKYYTRFGHYILNQDYDSWGQGTQVTVSS | low polyreactivity
QVQLVESGGGLVQAGGSLRLSCAASGFTIADYAMGWYRQAPGKERELVAAITYSGGSTYYADSVKGRFTISRDNAKNTVYLQMNSLKPEDTAVYYWNADYASQSGYDYWGQGTQVTVSS | low polyreactivity
QVQLVESGGGLVQAGGSLRLSCAASGFTIAGYAMGWYRQAPWKERELVAAISRGGITYYADSVKGRFTISRDNAKNTVYLQMNSLKPEDTAVYYCAAGKRWSTKYGYWGQGTQVTVSS | high polyreactivity
QVQLVESGGGLVQAGGSLRLSCAASGFTIASNDMGWYRQAPGKERELVAAITKGGGRTYYADSVKGRFTISRDNAKNTVYLQMNSLKPEDTAVYYCAARQLIKYDYWGQGTQVTVSS | low polyreactivity
QVQLVESGGGLVQAGGSLRLSCAASGFTIDTYAMGWYRQAPGKERELVAGISWSGGSTYYADSVKGRFTISRDNAKNTVYLQMNSLKPEDTAVYYCARTARRRYQPYEYWGQGTQVTVSS | low polyreactivity
QVQLVESGGGLVQAGGSLRLSCAASGFTIGYYAMGWYRQAPGKERELDAAISSGGGSTKYADSVKGRFTISRDNAKNTVYLQMNSLKPVDTAVYYFAKSRLVRGRSSYDYWGQGSQVTVSS | high polyreactivity
QVQLVESGGGLVQAGGSLRLSCAASGFTIGYYAMGWYRQAPGKERELVAAISWSGGRTYYAYSVKGRFTISRDNAKNTVYLQMNSLKPEDTAVYYCAADGQQTYSGYDYWGQGTQVTVSS | high polyreactivity
QVQLVESGGGLVQAGGSLRLSCAASGFTIHYYVMVWYRQAPGKERELVAAIRRGGSTSYADSVKGRFTISRDNAKNTVYLQMNSLKPEDTAVYYCAASYVSGERYDYWGQGTQVTVSS | low polyreactivity
QVQLVESGGGLVQAGGSLRLSCAASGFTIIYYAMGWYRQAPGKERELVAAITDSGGSTYYADSVKGRFTISRDNAKNTVYLQMNSLKPEDTAVYYCAARLTCSRFYYWGQGTQVTVSS | high polyreactivity
QVQLVESGGGLVQAGGSLRLSCAASGFTIKYNTMGWYRQAPGKERELVAAITSNTGSTYYADSVKGRFTISRDNAKNTVYLQMNSLKPEDTAVYYCAVTSYYRRYGYWGQGTQVTVSS | high polyreactivity
QVQLVESGGGLVQAGGSLRLSCAASGFTINFYGMGWYRQAPGKERELVAAITASGGGSTYYADSVKGRFTISRDNAKNTVYLQMNSLKPEDTAVYYCNADYTGSFYTYDYWGQGTQVTVSS | low polyreactivity
QVQLVESGGGLVQAGGSLRLSCAASGFTIPYKAMGWYRHAPGKERELVAAISRSGTRTYYADSVKGRFTISRDNAKNTVYIQMNSLKPEDTAVYYCAKDTIGGASPHYYWGQGTQVTVSS | high polyreactivity
QVQLVESGGGLVQAGGSLRLSCAASGFTIRLYAMGWYRQAPGKERELVAAITSGGSTYADSVKGRFTISRDNAKNTVYLQMNSLKPEDTAVYYCNAEALVNGGYDYWGQGTQVTVSS | high polyreactivity
QVQLVESGGGLVQAGGSLRLSCAASGFTIRRNAMGWYRQAPGKERELVAAISDRGGSTYYADSVKGRFTISRDTAKNTVYFQMTSLKPEDTAVYYCAAEPYAGPELDYWGQGTQVTVSS | high polyreactivity
QVQLVESGGGLVQAGGSLRLSCAASGFTIRRYAMGWYRQAPGKERELVAAITRSAGSTYYADSVKGRFTISRDNAKNTVYLQMNSLKPEDTAVYYCAARWTRWGADSGYYWGQGTQVTVSS | high polyreactivity
QVQLVESGGGLVQAGGSLRLSCAASGFTIRYYTMGWYRQAPGKERELVAAITWSGGRTYYADSVKGRFTISRDNAKNTVYLQMNSLKPEDTAVYYCAADVTKRASRDYYWGQGTQVTVSS | high polyreactivity
QVQLVESGGGLVQAGGSLRLSCAASGFTISYYAMGWYRQAPWKERELVASISSSGGRTYYADSVKGRFTISRDNAKNTVYLQMNSLKPEDTAVYYCAAVGGRSTRGYYWGQGTQVTVSS | high polyreactivity
QVQLVESGGGLVQAGGSLRLSCAASGFTITNYAMGWYRQAPGKERELVAAISTGGGRTYYADSVKGRFTISRDNAKNTVYLQMYSLKPEDTAVYYCAVVPYNISKTEQPGMDYWGQGTQVTVST | high polyreactivity

Source: the nanobody polyreactivity screen of Harvey et al. (2022)
